Where no end group is shown, it is not given here. [ ]: non-standard residue; d: D form.
B1: BTP-7 conjugated to a fluorescein dye (peptide)
peptide: [dT][dK][dW]G[dH][dV][dN][dK]
modifications: not fully specified (C-terminus); also: FITC on side chain of C-terminal Lys: own Lys8 or an added Lys, not given here
B2: BTP-8, not labeled with a fluorophore (peptide)
peptide: [dT][dI][dR][dK][dL][dV][dR][dH]-NH2
modifications: N-terminus assumed
SMILES: CC[C@@H](C)[C@@H](NC(=O)[C@H](N)[C@H](C)O)C(=O)N[C@H](CCCNC(=N)N)C(=O)N[C@H](CCCCN)C(=O)N[C@H](CC(C)C)C(=O)N[C@@H](C(=O)N[C@H](CCCNC(=N)N)C(=O)N[C@H](Cc1c[nH]cn1)C(N)=O)C(C)C
B3: BTP-9, not labeled with a fluorophore (peptide)
peptide: [dA][dD][dR][dR][dQ][dR][dA][dI]-NH2
modifications: N-terminus assumed
SMILES: CC[C@@H](C)[C@@H](NC(=O)[C@@H](C)NC(=O)[C@@H](CCCNC(=N)N)NC(=O)[C@@H](CCC(N)=O)NC(=O)[C@@H](CCCNC(=N)N)NC(=O)[C@@H](CCCNC(=N)N)NC(=O)[C@@H](CC(=O)O)NC(=O)[C@@H](C)N)C(N)=O

What was measured:
[1] = molecular target: recombinant BΔg protein (recombinant human brevican, enzymatically deglycosylated, His-tagged) (human) (UniProt Q96GW7); assay: BLI (Octet RED), His-tagged BΔg on Ni-NTA sensors, peptide in solution, steady state analysis
recombinant BΔg protein (recombinant human brevican, enzymatically deglycosylated, His-tagged) (human), sequence (Q96GW7 23-911, stated change not applied, form in doubt): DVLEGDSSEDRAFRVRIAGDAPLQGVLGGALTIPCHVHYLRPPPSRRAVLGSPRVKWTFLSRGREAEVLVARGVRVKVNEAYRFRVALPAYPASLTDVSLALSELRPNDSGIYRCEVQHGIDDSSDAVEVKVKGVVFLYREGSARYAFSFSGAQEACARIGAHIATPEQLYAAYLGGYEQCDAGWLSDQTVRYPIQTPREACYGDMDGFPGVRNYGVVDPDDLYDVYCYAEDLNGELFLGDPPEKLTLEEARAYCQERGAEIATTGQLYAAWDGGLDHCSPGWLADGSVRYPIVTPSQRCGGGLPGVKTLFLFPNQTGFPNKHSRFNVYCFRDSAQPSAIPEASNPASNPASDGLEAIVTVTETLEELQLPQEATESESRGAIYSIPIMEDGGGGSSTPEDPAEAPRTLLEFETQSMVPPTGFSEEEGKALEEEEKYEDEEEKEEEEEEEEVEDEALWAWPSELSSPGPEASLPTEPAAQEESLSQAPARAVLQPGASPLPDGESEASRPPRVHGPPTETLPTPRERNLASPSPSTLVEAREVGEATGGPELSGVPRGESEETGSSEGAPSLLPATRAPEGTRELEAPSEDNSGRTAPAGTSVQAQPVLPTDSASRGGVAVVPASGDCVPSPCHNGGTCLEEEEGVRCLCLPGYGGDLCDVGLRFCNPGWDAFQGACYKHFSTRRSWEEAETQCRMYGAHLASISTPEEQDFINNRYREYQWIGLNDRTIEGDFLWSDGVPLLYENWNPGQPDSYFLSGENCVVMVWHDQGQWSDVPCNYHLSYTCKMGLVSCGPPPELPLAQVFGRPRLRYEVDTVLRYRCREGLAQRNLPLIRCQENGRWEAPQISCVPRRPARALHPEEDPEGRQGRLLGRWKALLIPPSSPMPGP

[2] = molecular target: recombinant BΔg protein (recombinant human brevican, enzymatically deglycosylated, His-tagged) (human) (UniProt Q96GW7); assay: BLI (Octet RED), steady state analysis

| Binder | Kd [1] [nM] | fold lower binding affinity than the unlabeled BTP-7 [2] [fold] |
| --- | --- | --- |
| B1 | 3800 | > 10 |
| B2 | 1570 | – |
| B3 | 1500 | – |

Source: US20210353708A1
